Reference: article PMC6899460, “The Pseudomonas aeruginosa T6SS Delivers a Periplasmic Toxin that Disrupts Bacterial Cell Morphology” (Cell Reports, 2019)

Target: the molecule itself
Assay: SEC-MALS; SEC-MALLS and refractometry; Superdex 75 10/30 column, 20°C, 0.5 ml/min; fractions pooled from two peaks obtained after preparatory size-exclusion chromatography; dimer and monomer

B1: VgrG2b C-terminal domain (VgrG2bC-ter) (domain or fragment)
chain: VGETQRRFVLKQLDGQTAMPNVPYTITMANGEVIEGVTDAEGATQLLQKDAMNIAKVDMKHTKSPASAVAGIAAAVGAAVAVGKLLGGPDAEAGRALSEGEISLAKGVFGDSIDYSTVRLRDEDYVPWQGKDYVMAPNGHIYFGEELRGVADWSLESLQRQGLFIHEMTHVWQHQHGVNVLLVGAYQQARQFLLGDQYAYRLEPGKTLKDYNIEQQGDIVRDYFLEKNEFGEASANSRFAGVLKNFPTGY
notes: VgrG2b of Pseudomonas aeruginosa PAO1, C-terminal domain, residues 770-1,019; Monomeric and dimeric species were both found in solution; also called VgrG2b metallopeptidase domain; source: E. coli BL21 (λDE3) pET28a-vgrG2bC-ter, purified (Ni2+-NTA, SEC); not shown: His6, C-terminal, cleaved
stoichiometry N: 2
